Experimental findings from the supplement of paper PMC12042874 are described below.

± gives the uncertainty stated by the source.

The nature of the data set: amyloid nucleation score (Sup35N fusion, yeast selection) (log enrichment); library NNK3; higher = more nucleation; inactive = no reads after selection. Summed up: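 Psi-negative yeast expressed Sup35N fused to peptides of 20 random codons. They were induced 24 hours with 100 μM copper sulfate, grown 7 days at 30°C without adenine and uracil, and their plasmid inserts from input and output were Illumina-sequenced. The nucleation score is the DiMSum log enrichment of output over input reads, centred on the mode score of non-aggregating sequences. Sequences with under 100 input reads were excluded.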

Regarding EHNNQLGIWSTYPCSNLSGH, the amyloid nucleation score entry was “inactive”. Take SNLMYGNISINLDRWYVAFF: the amyloid nucleation score was 2.51 ± 0.074. Regarding GGTVFSNCVGVRRLNMYINY, the amyloid nucleation score entry is “inactive”.

As for NNMLIGVRSVRAYKWFMHCV, the amyloid nucleation score entry is “inactive”. On to LGTTSYRV, for which the amyloid nucleation score entry is “inactive”. CMFNGGDWNHNVRELGRQSS: the amyloid nucleation score entry is “inactive”.

As to TGVDILIPFFSPSGT, the amyloid nucleation score result is “inactive”. The same measure for RKWSNR: “inactive”; for KISNFLTSSLCMYGSLRWRV: 0.548 ± 0.2; for LWSWDDIHPFCLILLLTRCP: “inactive”. The same measure for GSYFN: “inactive”; for VIGRVRIGLVFRSTIGFSEG: “inactive”; for DGMTMFLSYN: -0.208 ± 1.1.

Consider VSLMMCVVPFMPVLQHMSNA, for which the amyloid nucleation score stood at 0.793 ± 0.16. To NTNRLFNSLRTKLGFCFYSF belongs “inactive”. For the substance RNKHYVGRQSVSDSRVLSIV, the amyloid nucleation score result is “inactive”. The same measure for KTLVIYYTFKIGNILHIHLF: “inactive”. To YVGYIDRWSSCYKVFWV belongs “inactive”; to QPVTRLFFISGSRGDLVEKH, “inactive”. The same measure for LTELSETVPVVKRWKCLDYF: -0.807 ± 1.9; for RRFVNVLGMHC: 0.693 ± 0.16. Take RHRIRWSMRRNWSACVQ: the amyloid nucleation score result was “inactive”. The same measure for ANDVISYTFFLSEERG: “inactive”; for CMLDKSAIIMTRMECIVLSY: “inactive”. In the case of GVSVMSGQAMYVRKRSALEM, the amyloid nucleation score result is “inactive”. The same measure for VVYYWSVRITAVQHYWHLYT: “inactive”; for FFCSSTPKSWMCKQTL: “inactive”; for SLCNGCMIK: “inactive”. Regarding QLRASA, the amyloid nucleation score entry was “inactive”. In the case of QGKCDSELRAAAMDI, the amyloid nucleation score entry was “inactive”. To IYDAGFVYQIGTEEQVCNRV belongs “inactive”. The same measure for GKIEDYCLVRESQAIPSLLQ: “inactive”; for LSLTRNSH: “inactive”. To YVFLRVEILEKLQQV belongs -0.522 ± 0.84. For the substance NICCHISKSRPYQVYFSLQL, the amyloid nucleation score entry is “inactive”.

As to VSFQD, the amyloid nucleation score result is “inactive”. For the substance EYYDI, the amyloid nucleation score result is “inactive”.

As to VGRRDN, the amyloid nucleation score entry was “inactive”. The same measure for QWVSLGLVGVGQ: “inactive”; for VNNPQVDHRVLFNNM: -0.426 ± 0.61; for LNVDNCAYVFSDDNFMTDVN: “inactive”. With VMYGIL, the amyloid nucleation score result was “inactive”. To PMVKPSNLCYSSHCSMGTRG belongs “inactive”.

As to TICYGD, the amyloid nucleation score result is “inactive”. The same measure for AVMVRRYFVDWCRQEVTFHV: 0.088 ± 0.62; for LKLYDGSFAFLKCTSFMFNG: 1.19 ± 0.17; for DYLVFFRPLFNSIDSHWIRS: “inactive”. To FWWVKC belongs “inactive”; to IYNRNGRF, “inactive”; to FNKLEVRNRQEWLSGRFWDH, -0.091 ± 0.36. The same measure for SRVDPLLRNWDCRFSSLLL: 0.935 ± 0.096; for FSHGFSIYRLKKT: “inactive”; for SCSWHFIFCCNGLHMSVKKR: 1.66 ± 0.084. In the case of FAQFLG, the amyloid nucleation score entry was “inactive”. To IQCIWDIVGDCWCNSSMGKE belongs “inactive”. To GGALAKNHILCR belongs “inactive”; to DCAYMCNVYFLVLGSAKLFI, 1.27 ± 0.17. The same measure for IVDFFGFNFCSWLSVFSDSR: 2.48 ± 0.056. Regarding PQMQAISSHVCLWG, the amyloid nucleation score result is “inactive”.

As for VWCTSVVT, the amyloid nucleation score was -0.149 ± 0.28. To ELRCFTQIGLGSCYRFIGYI belongs 0.371 ± 0.74; to SFTNFFNGSVGICFRCTLMC, 2.28 ± 0.052; to VYSGSFGDSKLLMFWCSITV, “inactive”.

Regarding MGNRNDSNLTRCWESTLVVK, the amyloid nucleation score entry was “inactive”. For GTWSVMCSYEPMAR, the amyloid nucleation score entry is “inactive”. Turning to LCLLYIGTSTIYGHECPDKT, the amyloid nucleation score entry was “inactive”. To GPARTRWILPRVLGCTYRAA belongs “inactive”; to GLDRRKICKLHGYGNS, “inactive”; to RVIKVGHMFKWSRAVGGGKT, -0.514 ± 1.7.

As for ETNEGPH, the amyloid nucleation score result is “inactive”. Consider VMQHNVGLFNDHKYDSCRAC, for which the amyloid nucleation score entry is “inactive”. For IPVAIMLS, the amyloid nucleation score result was “inactive”. To IKGLAPRFAVGLDNLMSESM belongs “inactive”; to FSCIMVRCYFR, “inactive”. The same measure for KGTLGCNSSSHVLIAVCNAM: “inactive”. To SKFSSC belongs “inactive”; to ITFVYSS, “inactive”.

Regarding GWRCCWIIWADAVYE, the amyloid nucleation score came out at 3.05 ± 0.075. Regarding TVSICSGVSRVWKHLHYMMV, the amyloid nucleation score entry is “inactive”. On to DDPQVGLNFAQSYALPEYFA, for which the amyloid nucleation score result was “inactive”.

For PTGGKKVGIASTFSLSVGTV, the amyloid nucleation score was -0.08 ± 0.27. To TVKVYTWNY belongs 1.93 ± 0.09; to RGGRYDFMCDTCSLIVFASV, -0.645 ± 1.1; to RRAMIGIFSITVRFADNGWK, “inactive”. As for GRHRFYSAIKQVQR, the amyloid nucleation score result is “inactive”. The same measure for SGTNNIVLLGHFVDFLEGVL: “inactive”; for NPFRGFLTIQCRPILRFPDK: “inactive”. The same measure for SGEYSQRKGSCKGHNGSSRS: “inactive”. Turning to FWSFRPGHITLSIGHTRIAG, the amyloid nucleation score entry was “inactive”.

SKCGLLNSSGTYWNIG registered an amyloid nucleation score of 0.934 ± 0.15. To NWCLVYRPVKL belongs 1.54 ± 0.1.

For the substance FRLYFYYYSNLFRHFCYNKS, the amyloid nucleation score entry is “inactive”. To RKIHLLGHWLFRSMYRRRFW belongs “inactive”; to STNSRFFSAYCSVVGMRRHA, “inactive”; to HCCNIRRARTQF, “inactive”. The same measure for CCRSWRSYSTVVFICGFLYW: “inactive”; for CNKGSNTYVVDYAVGNGH: “inactive”. The same measure for CHHLRWDNCVRREELDFTCV: “inactive”. For ISYVYFLGPCV, the amyloid nucleation score is 2.13 ± 0.08. To VPDLYSTEDGFSCCVSEYCT belongs “inactive”; to CLYVSLS, “inactive”.

On to CNVASSNFRCHYSQMRRFCE, for which the amyloid nucleation score result is “inactive”. To RWCMVIDSTNWCSCDRKHGA belongs 1.49 ± 0.13; to RCMIVASFYLSLIWKI, “inactive”. For KSTSFTYFLLNIRLMGYCPC, the amyloid nucleation score was determined as 0.725 ± 0.16. The same measure for TLDVQGTCH: “inactive”; for ERSITGYNPPRRV: -0.561 ± 0.82. The same measure for QARKDDDKAQNKCSR: “inactive”; for TFCVQYESRFRFQESESLHM: “inactive”; for SVYGSVFKNRG: “inactive”. To EQSLFES belongs “inactive”; to ASFKFGG, “inactive”. Regarding FCDAKYLRLRSCALISMPSV, the amyloid nucleation score result is “inactive”. To STDNVGMGKGWTGVIGWRVM belongs “inactive”; to RDEYYRDRLGIVNLSRCSKS, “inactive”; to NVEMLFNNSHHSTDEDAWYD, “inactive”.

In the case of RAFFDTSCGMSLDPSLIPTG, the amyloid nucleation score result is “inactive”. On to CHRRLML, for which the amyloid nucleation score entry is “inactive”. To KCRDLIRNVVPNSAIELDPS belongs “inactive”. GLCNTYCFHHCFRWVR: the amyloid nucleation score amounted to 0.769 ± 0.24. To FFFTEFFELHIWTKSLPFTS belongs “inactive”; to EAVYLSLYKECLCLVRVS, “inactive”; to IYWLSDN, “inactive”.

Take QGSMLRHY: the amyloid nucleation score result was “inactive”. The same measure for WLHFCHSAPSEYFVIMRMCK: “inactive”.

On to TWESGENLTLTWAAQMGRCG, for which the amyloid nucleation score result is “inactive”. To KRNSYTMFLA belongs “inactive”; to ERIVPA, “inactive”. To GANFVCSVECRLVRRNSRYD belongs 0.511 ± 0.21; to VLRVDRGGTIMRYPCLG, “inactive”; to WPTFDCRRM, “inactive”. The same measure for YCYFFLGLCTYKSQYNGLRL: “inactive”; for STMWYYMLVVIMRSCRAGDR: 0.793 ± 0.17.
